Test results published in patent US20230068663A1 (University of Texas, published 2023).
Where a chain is given by its changes, count along the chain named.

B1: B2-30 (antibody, human IgG1, V domains shown)
VH: QVQLVESGGGLVQPGGSLRLSCAASGFTFSSYDMHWVRQATGKGLEWVSAIGTAGDTYYPGSVKGRFTISRENAKNSLYLQMNSLRAGDTAVYYCARAKEYCSGGSCQDAFDIWGQGTMVSVSS
VL: QSPSSLSASVGDRVTITCRASQSIRTYLNWYQQKPGKDPELLIYAATSLQSGVPSRFTGSGSGTDFTLTISSLQPEDFATYYCQQSYSAPVFTFGQGTKLEIK
notes: also called B2-30_HC; B2-30_LC
B2: B2-4 (antibody, V domains shown)
VH: QVQLVQSGPTVRKPGASVRVSCKASGYPFTSNGMSWVRQAPGQGLEWMGWISTNSGNTNYAQKFQGRVTLTTDTSSTTTYLDLRSLTSDDTAIYYCARDVQYRMDVWGQGTTVTVSS
VL: QSVLTQPPSASGTPGQRVTISCSGSRSNIGSNPVNWYQHLPGTAPKLLVYSNNRRPSGVPDRFSGSKSGTSASLSISGLQSEDEGVYYCAAWDDNVHGVFGGGTKVTVL
notes: also called B2-4_HC; B2-4_LC
B3: B2-2 (antibody, V domains shown)
VH: QVQLVQSGAEVKKPGASVKVSCKASGYTFSDYGFSWVRQAPGQGLEWMGWISGYNGNTNYAQKFQGRVTMTIDASTSTAYMELRSLKSDDTAVYYCARLLLGYYGMDVWGQGTTVTVSS
VL: DIVMTQSPSSLSASVGDRVTLTCRASQSIGNYLNWYQQKPGKAPNLLIYAASSLQSGVPSRFSGSGSGTDFTLTISSLQPEDFATYYCQQSFSIPPITFGQGTRLEIK
notes: also called B2-2_HC; B2-2_LC
B4: B2-23 (antibody, V domains shown)
VH: QVQLVQSGAEVKKPGASVKVSCKASGYTFTHSYIHWVRQAPGQGLEWMGVINPVGGSTTYAQRFQGRVTMTRDTSTSTVYMELSSLRSEDTAVYYCARAGGDGYNPYFDYWGQGTLVTVSS
VL: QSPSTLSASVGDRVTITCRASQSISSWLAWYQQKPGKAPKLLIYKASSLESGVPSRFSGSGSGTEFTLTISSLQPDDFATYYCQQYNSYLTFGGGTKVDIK
notes: also called B2-23_HC; B2-23_LC
B5: B2-26 (antibody, V domains shown)
VH: QVQLVQSGAEVKKPGASVKVSCKASGYTFTSYGISWVRQAPGQGLEWMGWISAYNGNTNYAQKLQGRVTMTTDTSTSTAYMELRSLRSDDTAVYYCARDRGGWFDPWGQGTLVIVSS
VL: QSPSSLSASVGDRVTITCRASQSISNFVNWYQQKPGEVPKLLIYGASSLQSGVPSRFSGSGSGTDFTLTISSLQPEDFATYYCQQGYSVPLTFGGGTTVDIK
notes: also called B2-26_HC; B2-26_LC
B6: B2-13 (antibody, V domains shown)
VH: QVQLVQSGAEVKKPGSSVKVSCKASGGTFSSYAISWVRQAPGQGLEWMGGIIPIFGTANYAQKFQGRVTITADESTSTAYMELSSLRSEDTAVYYCARSDYGDSYFDYWGQGTLVSVSS
VL: QAVVTQPASVSGSPGQSVSISCTGTSSDVGGFNYVSWYQQHPGKAPKLMIYDVSNRPSGVSNRFSGSKSGNTASLTISGLQAEDEADYYCSSYTSSTAPYVFGTGTKVTVL
notes: also called B2-13_HC; B2-13_LC
B7: B2-27 (antibody, human IgG1, V domains shown)
VH: B6 VH with S99E, D100S, G102S, D103S, Y105S, L114T
VL: B6 VL with A2P, V4L, V18I, S19T, F32Y, T72S, T97S, A98T
notes: also called B2-27_HC; B2-27_LC
B8: B2-11 (antibody, V domains shown)
VH: QVQLQQSGPGLVKPSQTLSLTCAISGDSVSSNSAAWNWIRQSPSRGLEWLGRTYYRSKWYNDYAVSVKSRITINPDTSKNQFSLQLNSVTPEDTAVYYCARQDESAADDAFDIWGQGTLVIVSS
VL: QSVLTQPPSASGTPGQRVTISCSGSKSNVGNNFVHWYQQLPGTAPKLLLYSNLERSSGVPERFSGSKSGTSAYLAISGLRSDDEADYYCAAWDDSLPGWVFGGGTKLTVL
notes: also called B2-11_HC; B2-11_LC
B9: B2-9 (antibody, human IgG1, V domains shown)
VH: QVQLVQSGAEVKKPGASVKVSCKASGYTFTSYGISWVRQAPGQGLEWMGWISAYNGNTNYAQKLQGRVTMTTDTSTSTAYMELRSLRSDDTAVYYCARDGYGMDVWGQGTTVTVSS
VL: QSPSSLSASVGDRVTITCRTSHTVNSYLNWYQQEPGKAPKLLIYAASNLQSGVPSRFSGSGSGTDFSLTIHNLQPEDFATYYCQQSYRTPLTFGQGTKVDIK
notes: also called B2-9_HC; B2-9_LC
B10: B2-22 (antibody, V domains shown)
VH: B9 VH with D99V, Y101S, G102Y, M103G, V105Y, T111L
VL: QSPSSLSASVGDRVTITCRASQGISNYLAWYQQKPGKVPKLLIYAASTLQSGVPSRFSGSGSGTDFTLTISSLQPEDVATYYCQKYNSAPLTFGGGTKLEIK
notes: also called B2-22_HC; B2-22_LC
B11: B2-14 (antibody, V domains shown)
VH: B6 VH with S99A, D100S, Y101M, G102V, D103E, S104T, L114M, S116T
VL: QSVLTQPRSVSGSPGQSVTISCTGTSSDVGGYNYVSWYQQHPGKAPKLMISEVSKRPSGVPDRFSGSKSGNTASLTVSGLQAEDEADYYCSSYAGGYTPYVFGTGTKVTVL
notes: also called B2-14_HC; B2-14_LC
B12: B2-3 (antibody, V domains shown)
VH: QVQLVQSGAEVKKPGASVKVSCRTSGYTFSSYGISWVRQAPGQGLEWMGWISGNTGNTKYTPKLQGRVTMTTDTSTSTAYMELRSLRSDDTAVYYCARDRGIAAGRAFDIWGQGTMVTVSS
VL: QPVLTQPPSASGTPGQRVTISCSGSSSNIGTNPVNWYQQVPGTGPKLLIYNNNQWPSGVPDRFSGSKSATSASLAIYGLQSGDEAHYYCSSWDDSLSAWVFGGGTKVTVL
notes: also called B2-3_HC; B2-3_LC
B13: B2-1 (antibody, V domains shown)
VH: B6 VH with Q1E, E74K, S99G, D100N, Y101Q, S104T, Y105A, Y108I, L114T, S116I
VL: B6 VL with A2S, V3A, V4L, T5N, V18I, S19T, F32Y, T97S, A98T
notes: also called B2-1_HC; B2-1_LC
B14: HCB2-1c (antibody, V domains shown)
VH: EVQLVQSGAEVKKPGASVKVACKASGYTFTDYYIHWVRQAPGQGLEWMGIVNANGGDTNYAQQFQGRVTMTRDTSTSTVYLELTSLRSDDTAVYYCARDWYYYSSGSFPFDYWGQGTLVSVSS
VL: AIQMTQSPSSLSASVGDRVSITCRASQSISSFLNWYQQRPGKAPELLIYGASSLQSGVPSRFSGSGSGTDFTLTISSLQPEDFATYYCQQSYSIPITFGQGTQLEIK
B15: HCB2-1d (antibody, V domains shown)
VH: B14 VH
VL: DVQMTQSPSSLSASVGDRVSITCKASQDVSIAVAWYQQKPGKAPKLLIYSASYRYTGVPDRFSGSGSGTDFTLTISSLQPEDFAVYYCQQHYITPLTFGAGTKLEIK
B16: HCB2-2 (antibody, V domains shown)
VH: QVQLVQSGAEVKKPGASVKVSCKASGYIFNTYGISWVRQAPGQGLEWMGWTNVYNSNTDSGHKFQGRVTMTTDTSTDTAYMELRSLRSDDTAVYYCARDPGSAIFDMWGQGTMVTVSS
VL: B14 VL with A1D, I2V, Q103R
notes: also called HCB2-2_HC; HCB2-2_LC
B17: HCB2-13 (antibody, V domains shown)
VH: QVQLVESGGGLVQPGGSLRLSCAASGFTLSSYAMSWVRQAPGEGLEWVSSINSGGSTYYAGSVRGRFTISRDNSKNTLYLQMNSLRAEDTAVYYCAKAKSYSSDLDHWGQGTTVTVSS
VL: DVVMTQSPSSLSVSAGEKVTMSCKSSQSLLNSGNQKTYLAWYQQKPGQPPKLLIYGASTRESGVPDRFTGSGSGTDFTLTISSVQAEDLAVYYCQNDHSYPFTFGSGTKVEIKR
notes: also called HCB2-13_HC; HCB2-13_LC
B18: HCB2-4 (antibody, V domains shown)
VH: QVELQESGPGLVKPSETLSLTCTVSGDAIKDKYWSWVRQPPGKGLEWIGYISNSGSTNYNPSLKSRVSLSVDTSKNQFSLKQTSVTAADTATYYCARGSGYTAFDIWGQGTMVTVSS
VL: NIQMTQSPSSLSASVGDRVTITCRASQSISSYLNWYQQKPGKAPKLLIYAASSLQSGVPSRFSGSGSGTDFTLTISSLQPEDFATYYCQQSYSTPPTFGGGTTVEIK
notes: also called HCB2-4_HC; HCB2-4_LC

What follows are binders tested against T1, LILRB2-His antigen (UniProt Q8N423 22-460, limits assumed) (assay: indirect ELISA, coated LILRB2-His).
T1 construct: Coated on ELISA plates; also used for phage panning; also called LILRB2 antigen; not shown: His tag
Description: ELISA binding EC of LILRB2 antibodies. The ELISA binding EC₅₀ of these 24 antibodies were measured by indirect ELISA. […] After incubation, HRP-conjugated goat anti-human Fc secondary antibody was incubated with the plates. The TMB substrate was added for color development and measurement of absorbance at 450 nm.
With B1 the EC50 was 1.19 nM. For B2, the EC50 was 1.76 nM. Work on B3 yielded an EC50 of 1.6 nM. In the case of B4, the EC50 is reported as 2.44 nM. With B5 the EC50 was 1.02 nM. Binder B6 has an EC50 of 5.15 nM. Binder B7 has an EC50 of 379 nM. In the case of B8, the EC50 is reported as 3.79 nM. With B9 the EC50 was 0.608 nM. With B10 the EC50 was 0.348 nM. Binder B11 has an EC50 of 1.97 nM. B12 gave an EC50 of 0.787 nM.

What follows are binders tested against T2, LILRB2 chimeric receptor on LILRB2 reporter cells (extracellular domain of LILRB2 fused with … (UniProt Q8N423 22-460)) (assay: flow cytometry, LILRB2 reporter cells).
T2 construct: extracellular domain;domain: transmembrane/intracellular domains; associates with DAP12; also called LILRB2-expressing reporter cells
Description: FIGS. 1A-C. Screening specific monoclonal antibodies for LILRB2. […] Binding of monoclonal antibodies was screened using flow cytometer on LILRB2 reporter cells. Bound antibodies were detected with Allophycocyanin (APC)-labeled goat anti-human IgG secondary antibody. (FIG. 1B) Quantification of binding ability of monoclonal antibodies to LILRB2 reporter cells.
Screening specific monoclonal antibodies for LILRB2. The inventors employed a stable reporter cell system to detect the binding ability of selected monoclonal antibodies to LILRB2. In this chimeric receptor reporter system, the extracellular domain (ECD) of LILRB2 is fused with transmembrane/intracellular domains of PILRb that associates with the adaptor protein DAP12 containing an immunoreceptor tyrosine-based activation motif. 27 monoclonal antibodies were screened. The LILRB2 reporter cells were incubated with selected monoclonal antibody, then labeled with (APC) goat anti-human IgG secondary antibody. […] The inventors generated LILRBAs and LILRBs reporters stably transduced with each receptor's extracellular domain (ECD).
With B1 the “% of cells anti-hIgG APC+” value was 4.92%. B2 was tested, and the “% of cells anti-hIgG APC+” value was 0.7%. For B3, the “% of cells anti-hIgG APC+” value was 0.14%. In the case of B4, the “% of cells anti-hIgG APC+” value is reported as 0.47%. B5 was tested, and the “% of cells anti-hIgG APC+” value was 0.12%. With B13 the “% of cells anti-hIgG APC+” value was 1.69%. With B6 the “% of cells anti-hIgG APC+” value was 1.23%. For B7, the “% of cells anti-hIgG APC+” value was 1.1%. With B8 the “% of cells anti-hIgG APC+” value was 0.28%. B9 was tested, and the “% of cells anti-hIgG APC+” value was 0.09%. For B10, the “% of cells anti-hIgG APC+” value was 0.19%. B11 was tested, and the “% of cells anti-hIgG APC+” value was 3.74%. With B12 the “% of cells anti-hIgG APC+” value was 0.58%.

What follows are binders tested against T3, full extracellular domain (ECD) of LILRB2 fused to Fc fragment of mouse IgG2a (human; mouse, UniProt Q8N423 22-460) (assay: ELISA, coated human LILRB2 ECD-mIgG2a Fc [panel A]).
T3 construct: extracellular domain; also called B2-ECD; wildtype B2-ECD; not shown: Fc fragment of mouse IgG2a
Description: FIGS. 19A-B. ELISA binding measurement of antibodies to human and non-human primate (cynomolgus monkey, cyno) LILRB2 recombinantly produced in HEK293 cells. (FIG. 19A) ELISA binding to human LILRB2. (FIG. 19B) ELISA binding to cyno-LILRB2. The fusion proteins of the extracellular domain (ECD) of human LILRB2 or NHP-LILRB2 with Fe of mouse IgG2a were used to coat ELISA plates and antibodies were titrated in different concentrations as indicated in the graph.
B14: binds. B15: binds. B16: binds. B17: binds. B18: binds.
